Source: patent US20240270821A1, “GIP/GLP1/GCG TRI-RECEPTOR AGONISTS AND USES THEREOF” (priority 2023, published 2024)

B1: Example 164 (peptide)
chain: YXQGTFTSDFSXXLDKKAQXAFIEYLLEGGHSSGEPPPGGS
modifications: non-natural residues; lipidated Lys AEEA-γGlu-C18 diacid; C-term amide; synthetic construct; SITE 2: note = 2-Aminoisobutyric Acid; SITE 12: note = L-ornithine; SITE 13: note = alpha-methyl-leucine; SITE 17: note = Lysine is chemically modified through conjugation of the epsilon-amino group of the Lysine side chain with (2-[2-(2-Amino-ethoxy)-ethoxy]-acetyl)-(gamma-Glu)
B2: Example 165 (peptide)
chain: YXQGTFTSDFSXXLDKKAQXAFIEYLLEXGPSSGAPPPSGT
modifications: non-natural residues, acylated Lys, C-terminal amide; synthetic construct; SITE 2: note = 2-Aminoisobutyric Acid; SITE 12: note = L-ornithine; SITE 13: note = alpha-methyl-leucine; SITE 17: note = Lysine is chemically modified through conjugation of the epsilon-amino group of the Lysine side chain with (2-[2-(2-Amino-ethoxy)-ethoxy]-acetyl)2-(gamma-Glu)
B3: Example 166 (peptide)
chain: YXQGTFTSDFSXXLDKKAQXAFIEYLLEXGPSSGEPPPSGS
modifications: Aib, Orn, αMeL, acylated K, C-terminal amide; synthetic construct; SITE 2: note = 2-Aminoisobutyric Acid; SITE 12: note = L-ornithine; SITE 13: note = alpha-methyl-leucine; SITE 17: note = Lysine is chemically modified through conjugation of the epsilon-amino group of the Lysine side chain with (2-[2-(2-Amino-ethoxy)-ethoxy]-acetyl)2-(gamma-Glu)
B4: Example 167 (peptide)
chain: YXQGTFTSDFSXXLDKKAQXAFIEYLLEXGPSSGEPPPSGT
modifications: non-natural residues (Aib, Orn, αMeL); lipidated K; C-terminal amide; synthetic construct; SITE 2: note = 2-Aminoisobutyric Acid; SITE 12: note = L-ornithine; SITE 13: note = alpha-methyl-leucine; SITE 17: note = Lysine is chemically modified through conjugation of the epsilon-amino group of the Lysine side chain with (2-[2-(2-Amino-ethoxy)-ethoxy]-acetyl)2-(gamma-Glu)
B5: Example 168 (peptide)
chain: YXQGTFTSDFSXXLDKKAQXAFIEWLLEGGPSSGAPPPSGS
modifications: Aib, Orn, αMeL; acylated K; C-terminal amide; synthetic construct; SITE 2: note = 2-Aminoisobutyric Acid; SITE 12: note = L-ornithine; SITE 13: note = alpha-methyl-leucine; SITE 17: note = Lysine is chemically modified through conjugation of the epsilon-amino group of the Lysine side chain with (2-[2-(2-Amino-ethoxy)-ethoxy]-acetyl)-(gamma-Glu)
B6: Example 169 (peptide)
chain: YXQGTFTSDFSXXLDKKAQXAFIEWLLEGGHSSGAPPPSGE
modifications: acylated Lys, C-terminal amide, non-natural residues; synthetic construct; SITE 2: note = 2-Aminoisobutyric Acid; SITE 12: note = L-ornithine; SITE 13: note = alpha-methyl-leucine; SITE 17: note = Lysine is chemically modified through conjugation of the epsilon-amino group of the Lysine side chain with (2-[2-(2-Amino-ethoxy)-ethoxy]-acetyl)2-(gamma-Glu)
B7: Example 171 (peptide)
chain: YXQGTFTSDFSXXLDKKAQXAFIEWLLEGGHSSGAPPPSGT
modifications: Aib, Orn, αMeL; K acylated AEEA-γGlu-C18 diacid; C-terminal amide; synthetic construct; SITE 2: note = 2-Aminoisobutyric Acid; SITE 12: note = L-ornithine; SITE 13: note = alpha-methyl-leucine; SITE 17: note = Lysine is chemically modified through conjugation of the epsilon-amino group of the Lysine side chain with (2-[2-(2-Amino-ethoxy)-ethoxy]-acetyl)-(gamma-Glu)
B8: Example 172 (peptide)
chain: YXQGTFTSDFSXXLDKKAQXAFIEWLLEGGSSSGAPPPSGE
modifications: Aib, Orn, αMeL, acylated Lys, amide; synthetic construct; SITE 2: note = 2-Aminoisobutyric Acid; SITE 12: note = L-ornithine; SITE 13: note = alpha-methyl-leucine; SITE 17: note = Lysine is chemically modified through conjugation of the epsilon-amino group of the Lysine side chain with (2-[2-(2-Amino-ethoxy)-ethoxy]-acetyl)-(gamma-Glu)
B9: Example 173 (peptide)
chain: YXQGTFTSDFSXXLDKKAQXAFIEWLLEGGSSSGAPPPSGS
modifications: non-natural residues; lipidated Lys AEEA-γGlu-C18 diacid; C-term amide; synthetic construct; SITE 2: note = 2-Aminoisobutyric Acid; SITE 12: note = L-ornithine; SITE 13: note = alpha-methyl-leucine; SITE 17: note = Lysine is chemically modified through conjugation of the epsilon-amino group of the Lysine side chain with (2-[2-(2-Amino-ethoxy)-ethoxy]-acetyl)-(gamma-Glu)
B10: Example 174 (peptide)
chain: YXQGTFTSDFSXXLDKKAQXAFIEWLLEGGSSSGAPPPSGT
modifications: non-natural residues, acylated Lys, C-terminal amide; synthetic construct; SITE 2: note = 2-Aminoisobutyric Acid; SITE 12: note = L-ornithine; SITE 13: note = alpha-methyl-leucine; SITE 17: note = Lysine is chemically modified through conjugation of the epsilon-amino group of the Lysine side chain with (2-[2-(2-Amino-ethoxy)-ethoxy]-acetyl)-(gamma-Glu)
B11: Example 175 (peptide)
chain: YXQGTFTSDFSXXLDKKAQXAFIEWLLEGGTSSGAPPPSGE
modifications: Aib, Orn, αMeL; acylated Lys C18 diacid; C-term amide; synthetic construct; SITE 2: note = 2-Aminoisobutyric Acid; SITE 12: note = L-ornithine; SITE 13: note = alpha-methyl-leucine; SITE 17: note = Lysine is chemically modified through conjugation of the epsilon-amino group of the Lysine side chain with (2-[2-(2-Amino-ethoxy)-ethoxy]-acetyl)-(gamma-Glu)
B12: Example 176 (peptide)
chain: YXQGTFTSDFSXXLDKKAQXAFIEWLLEGGTSSGAPPPSGS
modifications: Aib, Orn, αMeL; AEEA-γGlu-C18 diacid Lys; C-term amide; synthetic construct; SITE 2: note = 2-Aminoisobutyric Acid; SITE 12: note = L-ornithine; SITE 13: note = alpha-methyl-leucine; SITE 17: note = Lysine is chemically modified through conjugation of the epsilon-amino group of the Lysine side chain with (2-[2-(2-Amino-ethoxy)-ethoxy]-acetyl)-(gamma-Glu)
B13: Example 177 (peptide)
chain: YXQGTFTSDFSXXLDKKAQXAFIEWLLEGGTSSGAPPPSGT
modifications: non-natural residues, AEEA-γGlu-C18 diacid acylation, C-terminal amide; synthetic construct; SITE 2: note = 2-Aminoisobutyric Acid; SITE 12: note = L-ornithine; SITE 13: note = alpha-methyl-leucine; SITE 17: note = Lysine is chemically modified through conjugation of the epsilon-amino group of the Lysine side chain with (2-[2-(2-Amino-ethoxy)-ethoxy]-acetyl)-(gamma-Glu)
B14: Example 179 (peptide)
chain: YXQGTFTSDFSXXLDKKAQXAFIEYLLEXGESSGAPPPSGS
modifications: non-natural residues (Aib, Orn, αMeL); lipidated K; C-terminal amide; synthetic construct; SITE 2: note = 2-Aminoisobutyric Acid; SITE 12: note = L-ornithine; SITE 13: note = alpha-methyl-leucine; SITE 17: note = Lysine is chemically modified through conjugation of the epsilon-amino group of the Lysine side chain with (2-[2-(2-Amino-ethoxy)-ethoxy]-acetyl)2-(gamma-Glu)
B15: Example 181 (peptide)
chain: YXQGTFTSDFSXXLDKKAQXAFIEYLLEXGHSSGAPPPSGS
modifications: (AEEA)2-γGlu-C18 diacid on Lys; non-natural residues; amide; synthetic construct; SITE 2: note = 2-Aminoisobutyric Acid; SITE 12: note = L-ornithine; SITE 13: note = alpha-methyl-leucine; SITE 17: note = Lysine is chemically modified through conjugation of the epsilon-amino group of the Lysine side chain with (2-[2-(2-Amino-ethoxy)-ethoxy]-acetyl)2-(gamma-Glu)
B16: Example 183 (peptide)
chain: YXQGTFTSDFSXXLDKKAQXAFIEYLLEXGXSSGAPPPSGS
modifications: Aib, Orn, αMeL, 4Pal, acylated K, C-terminal amide; synthetic construct; SITE 2: note = 2-Aminoisobutyric Acid; SITE 12: note = L-ornithine; SITE 13: note = alpha-methyl-leucine; SITE 17: note = Lysine is chemically modified through conjugation of the epsilon-amino group of the Lysine side chain with (2-[2-(2-Amino-ethoxy)-ethoxy]-acetyl)2-(gamma-Glu)
B17: Example 186 (peptide)
chain: YXQGTFTSDFSXXLDKKAQXAFIEYLLEXGHSSGAPPPSGE
modifications: Aib, Orn, αMeL; AEEA2-γGlu-C18 diacid acyl; C-terminal amide; synthetic construct; SITE 2: note = 2-Aminoisobutyric Acid; SITE 12: note = L-ornithine; SITE 13: note = alpha-methyl-leucine; SITE 17: note = Lysine is chemically modified through conjugation of the epsilon-amino group of the Lysine side chain with (2-[2-(2-Amino-ethoxy)-ethoxy]-acetyl)2-(gamma-Glu)

How the values were obtained:
Assay in all cases: cell-based or functional assay
hGLP-1R = hGLP-1R (Homo sapiens, UniProt P43220)
[1] = molecular target: human GLP-1R (SNAP-GLP-1R expressed in HEK293 cells) (human) (UniProt P43220)
[2] = molecular target: T1, human GIP receptor (human) (UniProt P48546)
T1 sequence (looked up): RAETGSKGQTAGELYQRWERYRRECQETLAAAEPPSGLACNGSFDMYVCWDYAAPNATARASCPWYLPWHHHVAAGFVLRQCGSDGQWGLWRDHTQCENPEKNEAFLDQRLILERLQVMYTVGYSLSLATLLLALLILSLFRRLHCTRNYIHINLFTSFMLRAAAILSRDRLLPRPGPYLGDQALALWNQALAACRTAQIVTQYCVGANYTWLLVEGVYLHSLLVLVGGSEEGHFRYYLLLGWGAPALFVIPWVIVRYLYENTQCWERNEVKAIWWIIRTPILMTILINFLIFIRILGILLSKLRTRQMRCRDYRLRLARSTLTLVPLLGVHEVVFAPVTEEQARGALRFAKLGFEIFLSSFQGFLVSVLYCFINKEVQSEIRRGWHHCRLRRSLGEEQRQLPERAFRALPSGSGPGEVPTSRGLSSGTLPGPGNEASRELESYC

[3] = molecular target: human glucagon receptor (human) (UniProt P47871)
human glucagon receptor (human), sequence (P47871 26-477): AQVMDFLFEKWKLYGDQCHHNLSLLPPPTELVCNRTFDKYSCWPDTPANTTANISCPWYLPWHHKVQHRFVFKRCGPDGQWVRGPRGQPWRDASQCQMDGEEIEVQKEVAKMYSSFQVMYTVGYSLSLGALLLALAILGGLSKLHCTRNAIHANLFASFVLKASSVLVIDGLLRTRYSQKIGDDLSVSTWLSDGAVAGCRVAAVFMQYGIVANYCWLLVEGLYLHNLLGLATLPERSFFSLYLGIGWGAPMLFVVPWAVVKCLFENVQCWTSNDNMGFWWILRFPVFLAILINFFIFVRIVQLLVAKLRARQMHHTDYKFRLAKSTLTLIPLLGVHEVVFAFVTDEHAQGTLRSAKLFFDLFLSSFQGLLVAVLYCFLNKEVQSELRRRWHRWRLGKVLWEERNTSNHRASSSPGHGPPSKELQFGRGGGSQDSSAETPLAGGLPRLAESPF

hGLP-1R, sequence (P43220 24-463): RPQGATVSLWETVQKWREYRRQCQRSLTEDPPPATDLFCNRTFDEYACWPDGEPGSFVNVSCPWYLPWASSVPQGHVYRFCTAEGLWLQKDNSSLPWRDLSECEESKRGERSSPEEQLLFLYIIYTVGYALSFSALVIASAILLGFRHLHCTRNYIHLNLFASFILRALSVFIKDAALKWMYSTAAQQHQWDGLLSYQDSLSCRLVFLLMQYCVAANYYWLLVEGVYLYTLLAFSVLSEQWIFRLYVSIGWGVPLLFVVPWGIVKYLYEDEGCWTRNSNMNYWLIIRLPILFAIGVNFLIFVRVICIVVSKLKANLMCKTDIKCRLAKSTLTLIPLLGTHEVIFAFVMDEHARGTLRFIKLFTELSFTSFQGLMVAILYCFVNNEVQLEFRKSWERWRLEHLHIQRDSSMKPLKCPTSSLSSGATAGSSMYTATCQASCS
human GLP-1R (SNAP-GLP-1R expressed in HEK293 cells) (human), sequence (P43220 24-463): as above

Row | Binder | Relative cAMP EC50, nM (0.1% casein) (hGLP-1R) [nM] | cAMP Rel EC50, nM (1% HSA) (hGLP-1R) [nM] | GLP1R Internalization EC50 [1] [nM] | Internalization % TOP [1] [%] | Relative cAMP EC50, nM (0.1% casein) [2] [nM] | cAMP Rel EC50, nM (1% HSA) [2] [nM] | Relative cAMP EC50, nM (0.1% casein) [3] [nM] | cAMP Rel EC50, nM (1% HSA) [3] [nM]
1 | B1 | 5.02 | 962 | 45.9 | 46.5 | 0.302 | 59 | 2.92 | 411
2 | B2 | 6.52 | 808 | 57.5 | 44.5 | 0.0956 | 18.6 | 4.47 | 1250
3 | B3 | 6.96 | 1500 | 74.6 | 44.2 | 0.118 | 21 | 3.82 | 724
4 | B4 | 6.19 | 1300 | 75.9 | 44.7 | 0.101 | 24.7 | 5.05 | 938
5 | B5 | 2.44 | 281 | 74.8 | 38.7 | 0.233 | 31.9 | 5.54 | 1270
6 | B6 | 6.17 | 216 | 178 | 49.4 | 0.209 | 21.5 | 11.7 | 439
7 | B7 | 2.89 | 287 | 61.4 | 36.1 | 0.2 | 27.1 | 3.86 | 502
8 | B8 | 3.5 | 457 | 121 | 41.4 | 0.174 | 29.3 | 3.38 | 605
9 | B9 | 2.32 | 293 | 97.1 | 38.6 | 0.168 | 49.9 | 3.6 | 745
10 | B10 | 2.33 | 208 | 123 | 52.8 | 0.198 | 20.8 | 4.24 | 307
11 | B11 | 4 | 386 | 116 | 49.2 | 0.218 | 29.6 | 4.92 | 579
12 | B12 | 2.92 | 389 | 103 | 48 | 0.212 | 40.7 | 4.1 | 461
13 | B13 | 2.97 | 483 | 79.4 | 44 | 0.213 | 34.8 | 4.22 | 758
14 | B14 | 5.81 | 904 | 63.4 | 48.4 | 0.104 | 21.3 | 4.82 | 1440
15 | B15 | 4.39 | 365 | 116 | 47.5 | 0.133 | 12.7 | 6.25 | 772
16 | B16 | 5.03 | 295 | 100 | 45.4 | 0.0759 | 13.7 | 3.83 | 504
17 | B17 | 5.26 | 690 | 124 | 41.1 | 0.107 | 18 | 4.67 | 1280
